Experimental data as given in article PMC4896396 (Journal of the American Chemical Society, 2016).

Molecular target: the molecule itself
Test: SEC-SAXS

B1: full-length rat phenylalanine hydroxylase (wt-PheH) (enzyme, UniProt P04176 1-453, looked up)
chain: MAAVVLENGVLSRKLSDFGQETSYIEDNSNQNGAISLIFSLKEEVGALAKVLRLFEENDINLTHIESRPSRLNKDEYEFFTYLDKRTKPVLGSIIKSLRNDIGATVHELSRDKEKNTVPWFPRTIQELDRFANQILSYGAELDADHPGFKDPVYRARRKQFADIAYNYRHGQPIPRVEYTEEEKQTWGTVFRTLKALYKTHACYEHNHIFPLLEKYCGFREDNIPQLEDVSQFLQTCTGFRLRPVAGLLSSRDFLGGLAFRVFHCTQYIRHGSKPMYTPEPDICHELLGHVPLFSDRSFAQFSQEIGLASLGAPDEYIEKLATIYWFTVEFGLCKEGDSIKAYGAGLLSSFGELQYCLSDKPKLLPLELEKTACQEYSVTEFQPLYYVAESFSDAKEKVRTFAATIPRPFSVRYDPYTQRVEVLDNTQQLKILADSINSEVGILCNALQKIKS
- stoichiometry N: 4
